# Reference: article PMC10357448
# B1: Interleukin-4 (IL-4): WT (P. pastoris) (protein)
# parent chain: MGLTSQLLPPLFFLLACAGNFVHGHKCDITLQEIIKTLNSLTEQKTLCTELTVTDIFAASKNTTEKETFCRAATVLRQFYSHHEKDTRCLGATAQQFHRHKQLIRFLKRLDRNLWGLAGLNSCPVKEANQSTLENFLERLKTIMREKYSKCSS
# Assay: In vitro trypsin digestion, SDS-PAGE densitometry
# Settings: glycan changed form; control: WT (HEK293), one N-glycan
protein,measurement,value
B1,"degradation_or_half_life, half_life","decreases, 2.6 ± 0.2 vs 4.9 ± 0.7"
